Patent publication US20250145724A1 (TWIST BIOSCIENCE, published 2025)

Assays:
[1] = target: T1, Adenosine A2A receptor (human) (human, UniProt P29274 1-412); experiment: flow cytometry titration 0.05-100 nM IgG, MFI; grey curve and grey number taken as HEK293-A2a cells, black (ND) as parent cells, no legend on the sheet
T1 construct: also called hA2a; hA2a receptor
Procedure: (§1) Flow cytometry data showing binding to HEK293-A2a cells using immunoglobulins from variant libraries were generated using 100 nM IgG and compared to detected binding in parent cells. […] Selected variants were assessed for binding at concentrations titrated from 100 nM. […] Binding curves are plotted with IgG concentration vs. MFI (mean fluorescence intensity). […] Selected variants were assessed for binding at concentrations titrated from 100 nM. […] Binding curves are plotted with IgG concentration vs. MFI (mean fluorescence intensity).

hA2b receptor = target: T2, hA2b receptor (human, UniProt P29275 1-332); experiment: cell binding on hA2b HEK293T cells, one bar per antibody; the y axis has no label or unit and the antibody concentration is not given
T2 construct: whole, on cells; also called adenosine A2B receptor
T2 sequence (looked up): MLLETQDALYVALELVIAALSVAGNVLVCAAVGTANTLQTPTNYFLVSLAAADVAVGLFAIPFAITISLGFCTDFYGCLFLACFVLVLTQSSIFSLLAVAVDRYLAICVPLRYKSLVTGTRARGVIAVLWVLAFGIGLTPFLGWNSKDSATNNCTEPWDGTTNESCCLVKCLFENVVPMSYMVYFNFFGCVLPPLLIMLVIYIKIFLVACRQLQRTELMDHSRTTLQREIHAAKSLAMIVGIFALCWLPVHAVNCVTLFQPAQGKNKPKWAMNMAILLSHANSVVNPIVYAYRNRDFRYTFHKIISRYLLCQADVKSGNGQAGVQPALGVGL

[2] = target: T1, Adenosine A2A receptor (human); experiment: cell-based or functional assay
[3] = target: T1, Adenosine A2A receptor (human); experiment: cell binding titration from 100 nM, RL1-H MFI; panel 'Immune Library to A2a protein + ZM241385'
Procedure: (§2) Purified A2a immunoglobulins from Tables 15-18 were assayed for binding in a titration from 100 nM.

[4] = target: T1, Adenosine A2A receptor (human); experiment: flow cytometry titration of IgG from 100 nM on hA2a (RL1-H MFI against IgG in nM); EC50 from the table drawn beside the curves
[5] = target: T1, Adenosine A2A receptor (human); experiment: cell-based or functional assay; remark: listed apart in the source
[6] = target: T1, Adenosine A2A receptor (human); experiment: cell binding titration from 100 nM, RL1-H MFI; panel 'Synthetic Library to A2a protein + ZM241385'
Procedure: as §2

[7] = target: T1, Adenosine A2A receptor (human); experiment: flow cytometry titration 0.05-100 nM IgG, MFI; grey curve taken as HEK293-A2a cells, black as parent cells
Procedure: as §1

[8] = target: T1, Adenosine A2A receptor (human); experiment: cell binding titration from 100 nM, RL1-H MFI; panel 'Mouse Immune Library to A2a protein'
Procedure: as §2

T1 sequence (P29274 whole entry): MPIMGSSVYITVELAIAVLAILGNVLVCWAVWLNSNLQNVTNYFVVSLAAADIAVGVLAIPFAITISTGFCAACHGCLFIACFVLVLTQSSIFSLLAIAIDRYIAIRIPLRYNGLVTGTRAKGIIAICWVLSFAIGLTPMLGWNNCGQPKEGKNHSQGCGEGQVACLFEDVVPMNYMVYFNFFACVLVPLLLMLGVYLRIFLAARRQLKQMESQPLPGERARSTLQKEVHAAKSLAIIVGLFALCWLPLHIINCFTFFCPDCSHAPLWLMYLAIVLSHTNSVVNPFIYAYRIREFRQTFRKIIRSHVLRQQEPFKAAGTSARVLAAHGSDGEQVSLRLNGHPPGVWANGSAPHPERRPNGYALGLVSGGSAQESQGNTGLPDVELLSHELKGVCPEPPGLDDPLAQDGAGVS

B1: A2A-9 (antibody, V domains shown)
VH: EVQLQQSGPGLVKPSQSLSLTCSVTGYSITSGYYWNWIRQFPGKKLEWMGYIRYDGSNNYNPSLKNRISITRDTSKNQFFLKLNSVTTDDTATYYCARVHHYYGSSYFDYWGQGTTLTVSS
VL: DIVMTQSQKFMSTSVGDRVSATCKASQNVGSSVAWFQQKPGQSPKALIYSTSYRYSGVPDRFTGSGSGTDFTLTISNVQSEDLAEYFCQQYNSYPLTFGAGTKLEIK
notes: Tested as IgG
EC50 [1]: 3.83 nM

B2: A2A-83 (antibody, V domains shown)
VH: EVQRVQSGAELVKPGASVKISCKASGYAFSSYWMNWVKQRPGKGLEWIGQIYPGDGDTNYNGKFEGKATLTADKSSSTAYMQLTSLTSDDSAVYYCARGAYWGQGTTLTVSS
VL: DIQMKQSQKFMSTSVGDRVSVTCKASQNVGTNVAWYQQKPGQSPKALIYSASYRYSGVPDRFTGSGSGTDFTLTISNVQSGDLAEYFCQQYNSYPLTFGAGTKLEIK
notes: Tested as IgG
binding result (hA2b receptor): binds

B3: A2A-77 (antibody, V domains shown)
VH: QVQLQESGPGLVKPSGTLSLTCAVSGGSISSSNWWSWVRQPPGKGLEWIGEIYHSGNTNYNPSLKSRVTMSVDKSKNQFSLNLHSVTAADTAVYYCAREVVSGMIGTIFDYWGQGTLVTVSS
VL: ELVMTQSPSSLSASVGDRVTITCRASQRISSYLNWYQQKPGKAPKLLIYAASSLQSRVPSRFSGSGSGTDFTLTISSLQPEDFATYYCQQSYSTPLTFGGGTKLETK
notes: Tested as IgG
IC50 (antagonistic cAMP assay, RFU ratio 665/615nm against IgG in nM) [2]: 3.52 nM | EC50 (read off the curve) [3]: ~5 nM | EC50 [4]: 5.76 nM | IC50, T cell activation assay (FIG. 32C) [5]: 5.92 nM

B4: A2A-75 (antibody, V domains shown)
VH: QVQLQESGPGLVKPSGTLSLTCAVSGGSISSSNWWSWVRQPPGKGLEWIGEIYHSGNTNYNPSLKSRVTMSVDKSKNQFSLNLHSVTAADTAVYYCAREVVSGMIGTIFDYWGQGTLVTVSS
VL: ELVMTQFPSSLSASVGDRVTITCRASQSISSYLNWYQQKPGKAPKLLIYAASSLQSGVPSRFSGSGSGTDFTLTISSLQPEDFATYYCQQANSFPITFGQGTRLEIK
notes: Tested as IgG
binding result (hA2b receptor): no binding

B5: A2A – 80 (antibody, V domains shown)
VH: QVQLVQSGGGLVKPGGSLRLSCAASGFTISTYDIYWVRQATGKGLEWVSAIGTAGDTYYPGSVKGRFTISRENAKNSLYLQMNSLRAGDTAVYYCASGYNWIFDYWGQGTLVTVSS
VL: ELTLTQSPGTLSLSPGERATLSCRASQSVSSNLAWYQQKPGQAPRLLIYGASTRATGTPARFSGSGSGTEFTLTISSLQSEDFAVYYCQQYGSSPPTFGQGTRLEIK
notes: panel 'Immune Library to A2a protein + ZM241385'
binding result [3]: binds

B6: A2A-78 (antibody, V domains shown)
VH: EVQLLESGGGLVQPGGSLRLSCAASGFTFSAYDIYWVRQPTGKGLEWVSAIGTAGDTYYPGSVKGRFIISRESAKNSVYLQMNSLRAGDTAVYYCAVGYNWVFDLWGQGTLVTVSS
VL: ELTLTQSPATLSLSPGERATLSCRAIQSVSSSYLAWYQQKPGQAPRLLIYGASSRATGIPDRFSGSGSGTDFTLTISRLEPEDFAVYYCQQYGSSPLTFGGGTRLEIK
notes: Tested as IgG
EC50 (read off the curve) [3]: ~5 nM

B7: A2A-26 (antibody, V domains shown)
VH: EVQLLESGGGLVQPGGSLRLSCAASGFTFSTYAMGWVRQAPGKGLEWVSGISGSAGSTYYADSVKGRFTISRDNSKNTLYLQMNSLRAEDTAVYYCAAARGHWRWRLGRRYDYWGQGTLVTVSS
VL: DIQMTQSPSSLSASVGDRVTITCRASQTISRYLNWYQQKPGKAPKLLIYSASTLQSGVPSRFSGSGSGTDFTLTISSLQPEDFATYYCQQSYSTPHTFGGGTKVEIK
notes: Tested as IgG
binding result [6]: binds | binding result (hA2b receptor): binds

B8: A2A-19 (antibody, V domains shown)
VH: EVQLVESGGGLVKPGGSLRLSCAASGFTFSGYAMNWVRQAPGKGLEWVSTISGSGASTYYADSVKGRFTISRDNSKNTLYLQMNSLRAEDTAVYYCAAARGYKRWRLGRRYDYWGQGTLVTVSS
VL: DIQMTQSPSSLSASVGDRVTITCRASQSISDYLNWYQQKPGKAPKLLIYTASTLQSGVPSRFSGSGSGTDFTLTISSLQPEDFATYYCEQSYSTPWTFGGGTKLEIK
notes: Tested as IgG
binding result (hA2b receptor): binds

B9: A2A-35 (antibody, V domains shown)
VH: EVQLVESGGGLVKPGGSLRLSCAASGFTFSTYGMSWVRQAPGKGLEWVSGISGSGGSTNYADSVKGRFTISRDNSKNTLYLQMNSLRAEDTAVYYCAAARGKWRWRLGRRYDYWGQGTLVTVSS
VL: DIQMTQSPSSLSASVGDRVTITCRASQSIGRYLNWYQQKPGKAPKLLIYAASSLHSGVPSRFSGSGSGTDFTLTISSLQPEDFATYYCQQSYVTPWTFGGGTKVEIK
notes: Tested as IgG
binding result (hA2b receptor): binds

B10: A2A-27 (antibody, V domains shown)
VH: EVQLVESGGGLVKPGGSLRLSCAASGFTFSSYAMAWVRQAPGKGLEWVSAISGSGGSTYFADSVKGRFTISRDNSKNTLYLQMNSLRAEDTAVYYCAAARGYWRWRLWRRYDYWGQGTLVTVSS
VL: DIQMTQSPSSLSASVGDRVTITCRASQSIGSYLNWYQQKPGKAPKLLIYGASNLQSGVPSRFSGSGSGTDFTLTISSLQPEDFATYYCQQGYSAPRTFGGGTKLEIK
notes: Tested as IgG; also called A2A-27 (Alloy)
binding result [6]: binds | binding result (hA2b receptor): binds

B11: A2A-15 (antibody, V domains shown)
VH: EVQLVESGGGLVKPGGSLRLSCAASGFTFSTYGMSWVRQAPGKGLEWVSGISGSGGSTNYADSVKGRFTISRDNSKNTLYLQMNSLRAEDTAVYYCAAARGKWRWRLGRRYDYWGQGTLVTVSS
VL: DIQMTQSPSSLSASVGDRVTITCRASQSIGRYLNWYQQKPGKAPKLLIYAASSLHSGVPSRFSGSGSGTDFTLTISSLQPEDFATYYCQQSYVTPWTFGGGTKLEIK
binding result [7]: no binding (tested: 100 nM)

B12: A2A – 79 (antibody, V domains shown)
VH: QVQLQESGGGVVRPGGSLRLSCAASGFTFDDYGMSWVRQVPGKGLEWVSGITWNGDRSGYADSVKGRFTISRDNAKNSLYLQMNSLRAEDTALYYCVRDGLTGIFDYWGQGTLVTVSS
VL: ELTLTQSPATLSVSPGERATLSCRASQSVSSYLAWYQQKPGQAPRLLIYGASSRATGIPDRFSGSGSGTDFTLTISRLEPEDFAVYYCQQYGNSYTFGQGTKVDIK
notes: as for B5
binding result [3]: binds

B13: A2A-88 (antibody)
heavy chain variable region: EVQLVESGGGLVKPGGSLRLSCAASGFTFRTYGMHWVRQAPGKGLEWVAVISAEGSNKYYADSVKGRFTISRDNSKNTLYLQMNSLRAEDTAVYYCARDGRGSLPRPKGGFIGALSFHWPFGRWLGGSYGTYDSSEDSGGAFDIWGQGTLVTVSS
light chain variable region: QSVLTQPPSVSAAPGQKVTISCSGISSNIGNNYVSWYQQLPGTAPKLLIYDNNKRASGIPDRFSGSKSGTSATLGITGLQTGDEADYYCGTWDTSLSAGVFGGGTKLTVL
binding result (hA2b receptor): binds

B14: A2A-84 (antibody, V domains shown)
VH: EVQLVESGGGLVKPGGSLRLSCAASGYTFTEYITHWVRQAPGKGLEWVATISGGGSYTNFPDSVKGRFTISRDNAKNTLFLQMTSLRSEDTAMYYCARPNYSGSSPFAYWGQGTLVTVSA
VL: DIVMTQAPAIMSASPGEKVTMTCSASSSVSYMYWYQQKPGSSPRFLIYDTSNLASGVPVRFSGSGSGTSYSLTISSMEAEDAATYYCQQWNSNPLTFSAGTKLEIK
notes: Tested as IgG
binding result [8]: binds
